Results published in IntAct's records for PubMed 22752157.

B1: Kinase suppressor of Ras 1 (Mus musculus), Q61097 (parent)
chain: MDRAALRAAAMGEKKEGGGGGAAADGGAGAAVSRALQQCGQLQKLIDISIGSLRGLRTKCSVSNDLTQQEIRTLEAKLVKYICKQQQSKLSVTPSDRTAELNSYPRFSDWLYIFNVRPEVVQEIPQELTLDALLEMDEAKAKEMLRRWGASTEECSRLQQALTCLRKVTGLGGEHKMDSGWSSTDARDSSLGPPMDMLSSLGRAGASTQGPRSISVSALPASDSPVPGLSEGLSDSCIPLHTSGRLTPRALHSFITPPTTPQLRRHAKLKPPRTPPPPSRKVFQLLPSFPTLTRSKSHESQLGNRIDDVTPMKFELPHGSPQLVRRDIGLSVTHRFSTKSWLSQVCNVCQKSMIFGVKCKHCRLKCHNKCTKEAPACRITFLPLARLRRTESVPSDINNPVDRAAEPHFGTLPKALTKKEHPPAMNLDSSSNPSSTTSSTPSSPAPFLTSSNPSSATTPPNPSPGQRDSRFSFPDISACSQAAPLSSTADSTRLDDQPKTDVLGVHEAEAEEPEAGKSEAEDDEEDEVDDLPSSRRPWRGPISRKASQTSVYLQEWDIPFEQVELGEPIGQGRWGRVHRGRWHGEVAIRLLEMDGHNQDHLKLFKKEVMNYRQTRHENVVLFMGACMNPPHLAIITSFCKGRTLHSFVRDPKTSLDINKTRQIAQEIIKGMGYLHAKGIVHKDLKSKNVFYDNGKVVITDFGLFGISGVVREERRENQLKLSHDWLCYLAPEIVREMIPGRDEDQLPFSKAADVYAFGTVWYELQARDWPFKHQPAEALIWQIGSGEGVRRVLASVSLGKEVGEILSACWAFDLQERPSFSLLMDMLERLPKLNRRLSHPGHFWKSADINSSKVMPRFERFGLGTLESGNPKM

Variants of: B1
Conditions: with VRK2, Q86Y07-1
VRK2, Q86Y07-1, sequence (Q86Y07 whole entry): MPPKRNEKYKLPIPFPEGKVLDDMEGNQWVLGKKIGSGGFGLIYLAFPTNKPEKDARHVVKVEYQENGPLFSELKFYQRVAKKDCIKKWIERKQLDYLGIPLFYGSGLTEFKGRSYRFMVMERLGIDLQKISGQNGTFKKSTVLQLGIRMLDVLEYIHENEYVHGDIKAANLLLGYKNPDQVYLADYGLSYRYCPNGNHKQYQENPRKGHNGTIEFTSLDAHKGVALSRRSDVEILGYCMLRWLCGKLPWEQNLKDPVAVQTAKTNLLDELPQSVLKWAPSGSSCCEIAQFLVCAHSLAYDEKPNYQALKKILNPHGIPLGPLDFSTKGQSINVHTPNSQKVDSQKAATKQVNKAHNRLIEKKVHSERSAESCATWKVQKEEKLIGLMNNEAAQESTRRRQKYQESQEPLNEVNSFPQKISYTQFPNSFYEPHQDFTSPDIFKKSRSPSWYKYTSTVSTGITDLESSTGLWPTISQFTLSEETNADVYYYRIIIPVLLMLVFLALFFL

Variant	effect of a mutation on the interaction
C809Y	decreasing interaction
